The values below come from patent US20110111461A1 (Hoffmann-La Roche, published 2011).

Test [1] concerns the target T1, human epidermal growth factor receptor (EGFR) (human, UniProt P00533 25-1210).
T1 construct: whole, on cells; also called HER-1; ErbB1
The test is described as follows: flow cytometry on A431 cells; light chain variants paired with I-HHD. Here is the method: (§1) The purified, monomeric humanized antibody variants were tested for binding to human epidermal growth factor receptor (EGFR, also referred to in the literature as HER-1 or ErbB1) on the A431 human epidermal cell line, using a flow cytometry-based assay. 200,000 cells (e.g., from human A431 cell line) in 180 μl FACS buffer (PBS containing 2% FCS and 5 mM EDTA) were transferred to 5 ml polystyrene tubes and 20 μl 10 fold concentrated anti-EGFR antibody (primary antibody) samples (1-5000 ng/ml final concentration) or PBS only were added. After gently mixing the samples, the tubes were incubated at 4° C. for 30 min in the dark. Subsequently, samples were washed twice with FACS buffer and pelleted at 300×g for 3 min. Supernatant was aspirated off and cells were taken up in 50 μl FACS buffer and 2 μl secondary antibody (anti-Fc-specific F(ab′)2-FITC fragments (Jackson Immuno Research Laboratories, USA)) was added and the tubes were incubated at 4° C. for 30 min. Samples were washed twice with FACS buffer and taken up in 500 μl of FACS buffer for analysis by Flow Cytometry. Binding was determined by plotting the geometric mean fluorescence against the antibody concentrations.
Each of the I-KC variant constructs (I-KCl to I-KC9) was paired with a heavy chain variable region comprising construct I-HHD (SEQ ID NO:16 and SEQ ID NO:15) and a binding assay performed according to the methods described in the previous examples. Constructs I-KCl to I-KC9 were compared to the I-KC construct (SEQ ID NO:46 and SEQ ID NO:45) for binding affinity to EGFR in A431 target cells (FIG. 29). […] Therefore, when paired with a chimeric (e.g., humanized) heavy chain construct specific for EGFR, the light chain can be entirely human (e.g., from a human light chain V gene sequence) and still retain specific binding for EGFR. In particular, CDR2 and CDR3 can be entirely in human germline form.
For orientation: In flow cytometry, cells or beads pass a laser one at a time.

The target of test [2] is T1, human epidermal growth factor receptor …. The test is described as follows: flow cytometry on A431 cells; chain swap with ch-ICR62 (FIG. 1). Here is the method:
as §1
Only the I-HHA has strongly diminished binding activity (see FIG. 2). […]

The target is the same in test [3]. The test is described as follows: flow cytometry on A431 cells. As to the method: as §1
Only the I-HHA has strongly diminished binding activity (see FIG. 2). […] In this experiment, either the light chain, the heavy chain or both chains simultaneously of the ch-ICR62 were replaced by the above mentioned humanized constructs.

The target is the same in test [4]. The test is described as follows: flow cytometry on A431 cells (FIG. 4). As to the method:
as §1
FIGS. 4 and 5 compare the constructs of the series I-HLA1, I-HLA2, I-HLA3, I-HLA4, I-HLA5, and I-HLA6. […]

B1: humanized ICR62 antibody I-HHD / I-KC3 (antibody, human IgG1, V domains shown)
VH: QVQLVQSGAEVKKPGSSVKVSCKASGFTFTDYKIHWVRQAPGQGLEWMGYFNPNSGYSTYAQKFQGRVTITADKSTSTAYMELSSLRSEDTAVYYCARLSPGGYYVMDAWGQGTTVTVSS
VL: DIQMTQSPSSLSASVGDRVTITCRASQGINNYLGWYQQKPGKAPKRLIYNTNNLQTGVPSRFSGSGSGTEFTLTISSLQPEDFATYYCLQHNSFPTFGQGTKLEIKR
On to B1, for which the “EC50 fold increase relative to the I-KC construct” value in test [1] was 10 fold.

B2: chimeric ICR62 heavy chain (rVH) combined with the I-KB light chain (antibody, human IgG1, V domains shown)
VH: QVNLLQSGAALVKPGASVKLSCKGSGFTFTDYKIHWVKQSHGKSLEWIGYFNPNSGYSTYNEKFKSKATLTADKSTDTAYMELTSLTSEDSATYYCTRLSPGGYYVMDAWGQGASVTVSS
VL: DIQMTQSPSSLSASVGDRVTITCKASQNINNYLNWYQQKPGKAPKRLIYNTNNLQTGVPSRFSGSGSGTEYTLTISSLQPEDFATYYCLQHNSFPTFGQGTKLEIKR
notes: also called rVH / I-KB
For the molecule B2, the binding result in test [2] is listed as “binds”.

B3: humanized ICR62 antibody I-HHD / I-KC5 (antibody, human IgG1, V domains shown)
VH: QVQLVQSGAEVKKPGSSVKVSCKASGFTFTDYKIHWVRQAPGQGLEWMGYFNPNSGYSTYAQKFQGRVTITADKSTSTAYMELSSLRSEDTAVYYCARLSPGGYYVMDAWGQGTTVTVSS
VL: DIQMTQSPSSLSASVGDRVTITCRASQGINNYLNWYQQKPGKAPKRLIYNANNLQTGVPSRFSGSGSGTEFTLTISSLQPEDFATYYCLQHNSFPTFGQGTKLEIKR
B3: the binding result in test [1] was “binds”.

B4: humanized ICR62 antibody I-HHD / I-KC8 (antibody, human IgG1, V domains shown)
VH: QVQLVQSGAEVKKPGSSVKVSCKASGFTFTDYKIHWVRQAPGQGLEWMGYFNPNSGYSTYAQKFQGRVTITADKSTSTAYMELSSLRSEDTAVYYCARLSPGGYYVMDAWGQGTTVTVSS
VL: DIQMTQSPSSLSASVGDRVTITCRASQGINNYLNWYQQKPGKAPKRLIYNTNNLQSGVPSRFSGSGSGTEFTLTISSLQPEDFATYYCLQHNSFPTFGQGTKLEIKR
On to B4, for which the binding result in test [1] was “binds”.

B5: humanized ICR62 antibody I-HHD / I-KC4 (antibody, human IgG1, V domains shown)
VH: QVQLVQSGAEVKKPGSSVKVSCKASGFTFTDYKIHWVRQAPGQGLEWMGYFNPNSGYSTYAQKFQGRVTITADKSTSTAYMELSSLRSEDTAVYYCARLSPGGYYVMDAWGQGTTVTVSS
VL: DIQMTQSPSSLSASVGDRVTITCRASQGINNYLNWYQQKPGKAPKRLIYTTNNLQTGVPSRFSGSGSGTEFTLTISSLQPEDFATYYCLQHNSFPTFGQGTKLEIKR
Regarding B5, the binding result in test [1] is reported as “binds”.

B6: humanized ICR62 antibody I-HHD / I-KC7 (antibody, human IgG1, V domains shown)
VH: QVQLVQSGAEVKKPGSSVKVSCKASGFTFTDYKIHWVRQAPGQGLEWMGYFNPNSGYSTYAQKFQGRVTITADKSTSTAYMELSSLRSEDTAVYYCARLSPGGYYVMDAWGQGTTVTVSS
VL: DIQMTQSPSSLSASVGDRVTITCRASQGINNYLNWYQQKPGKAPKRLIYNTNSLQTGVPSRFSGSGSGTEFTLTISSLQPEDFATYYCLQHNSFPTFGQGTKLEIKR
For the molecule B6, the binding result in test [1] is recorded as “binds”.

B7: humanized ICR62 antibody I-HHD / I-KC9 (antibody, human IgG1, V domains shown)
VH: QVQLVQSGAEVKKPGSSVKVSCKASGFTFTDYKIHWVRQAPGQGLEWMGYFNPNSGYSTYAQKFQGRVTITADKSTSTAYMELSSLRSEDTAVYYCARLSPGGYYVMDAWGQGTTVTVSS
VL: DIQMTQSPSSLSASVGDRVTITCRASQGINNYLNWYQQKPGKAPKRLIYNTNNLQTGVPSRFSGSGSGTEFTLTISSLQPEDFATYYCLQHNSYPTFGQGTKLEIKR
With B7, the binding result in test [1] is “binds”.

B8: humanized ICR62 antibody I-HHD / I-KC6 (antibody, human IgG1, V domains shown)
VH: QVQLVQSGAEVKKPGSSVKVSCKASGFTFTDYKIHWVRQAPGQGLEWMGYFNPNSGYSTYAQKFQGRVTITADKSTSTAYMELSSLRSEDTAVYYCARLSPGGYYVMDAWGQGTTVTVSS
VL: DIQMTQSPSSLSASVGDRVTITCRASQGINNYLNWYQQKPGKAPKRLIYNTSNLQTGVPSRFSGSGSGTEFTLTISSLQPEDFATYYCLQHNSFPTFGQGTKLEIKR
Turning to B8, in test [1], the binding result was “binds”.

B9: chimeric rat-human ICR62 antibody (antibody, V domains shown)
VH: QVNLLQSGAALVKPGASVKLSCKGSGFTFTDYKIHWVKQSHGKSLEWIGYFNPNSGYSTYNEKFKSKATLTADKSTDTAYMELTSLTSEDSATYYCTRLSPGGYYVMDAWGQGASVTVSS
VL: DIQMTQSPSFLSASVGDRVTINCKASQNINNYLNWYQQKLGEAPKRLIYNTNNLQTGIPSRFSGSGSGTDYTLTISSLQPEDFATYFCLQHNSFPTFGAGTKLELKR
notes: also called ch-ICR62; chimeric ICR62
Take B9: in test [3], the EC50 (commonly the concentration needed to bring the measured effect to its halfway point) was around 0.3 µg/mL. Besides, the “EC50 fold lower relative to I-HLA4” value in test [4] is 2 fold.
